These results are taken from patent publication US20090311784A1 (WISCONSIN ALUMNI RESEARCH FOUNDATION, published 2009).

Where a chain is given by its changes, count along the chain named. In names and notes the source's numbering stands.

T1: human ribonuclease inhibitor (human, UniProt P13489 2-461)
T1 construct: also called hRI; hR1
T1 sequence: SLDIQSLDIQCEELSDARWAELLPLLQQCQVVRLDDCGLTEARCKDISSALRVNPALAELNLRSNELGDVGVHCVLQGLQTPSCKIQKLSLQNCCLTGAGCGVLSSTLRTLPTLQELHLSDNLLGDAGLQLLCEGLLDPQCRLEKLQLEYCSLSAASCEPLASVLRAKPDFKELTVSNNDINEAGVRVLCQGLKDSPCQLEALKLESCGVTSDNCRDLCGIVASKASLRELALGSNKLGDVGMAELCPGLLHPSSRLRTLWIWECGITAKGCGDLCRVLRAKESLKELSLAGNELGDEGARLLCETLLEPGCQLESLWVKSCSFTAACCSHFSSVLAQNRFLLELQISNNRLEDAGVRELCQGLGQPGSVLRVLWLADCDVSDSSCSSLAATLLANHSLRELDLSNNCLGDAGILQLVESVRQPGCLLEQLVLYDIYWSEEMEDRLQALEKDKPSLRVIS

B1: fluorescein-labeled G88R RNase A (enzyme)
chain: KETAAAKFERQHMDSSTSCASSSNYCNQMMKSRNLTKDRCKPVNTFVHESLADVQAVCSQKNVACKNGQTNCYQSYSTMSITDCRETRSSKYPNCAYKTTQANKHIIVACEGNPYVPVHFDASV
modifications: fluorescein on Cys19 (F*-A19C)
notes: also called F*-A19C G88R RNase A; fluorescently-labeled G88R RNase A
B2: G38R/R39G/N67R/N88R RNase 1 (enzyme)
chain: KESRAKKFQRQHMDSDSSPSSSSTYCNQMMRRRNMTQRGCKPVNTFVHEPLVDVQNVCFQEKVTCKRGQGNCYKSNSSMHITDCRLTRGSRYPNCAYRTSPKERHIIVACEGSPYVPVHFDASVEDST
notes: Made by site-directed mutagenesis and purified like wild-type RNase 1
B3: R39D/N67D/N88A/R91D RNase 1 (enzyme)
chain: B2 chain with R38G, G39D, R67D, R88A, R91D
B4: R39D/N88A/G89D/R91D RNase 1 (enzyme)
chain: B2 chain with R38G, G39D, R67N, R88A, G89D, R91D
B5: R39D/N67D/N88A/G89D/R91D RNase 1 (enzyme)
chain: B2 chain with R38G, G39D, R67D, R88A, G89D, R91D
B6: R39D/N67D/G89D/R91D RNase 1 (enzyme)
chain: B2 chain with R38G, G39D, R67D, R88N, G89D, R91D
B7: R39D/N67D/N88A/G89D RNase 1 (enzyme)
chain: B2 chain with R38G, G39D, R67D, R88A, G89D
B8: R39L/N67L/N88A/G89L/R91L RNase 1 (enzyme)
chain: B2 chain with R38G, G39L, R67L, R88A, G89L, R91L
B9: N67D/N88A/G89D/R91D RNase 1 (enzyme)
chain: B2 chain with R38G, G39R, R67D, R88A, G89D, R91D

The first assay addresses T1, human ribonuclease inhibitor. The assay can be described thus: constant used in the fluorescence competition assay. The source says: (§1) Values for Kd were obtained by nonlinear least-squares analysis of the binding isotherm using the program […] 5.5 (Red Rock Software, Salt Lake City, Utah).
One may read the Kd as a measure of binding affinity in units of concentration. A high value points to a looser complex. Consider B1, for which the dissociation constant (Kd) was 1.4 nM.

The target is the same in another assay. The experiment in a line: calculated from Kd: ΔΔG = -RTln(Kd wild-type/Kd variant).
Excerpt: as §1
With B2, the ΔΔG is 3 kcal/mol.
As to B3, the ΔΔG is 8.4 kcal/mol.
With B4, the ΔΔG is 7.6 kcal/mol.
The same measure, in the same setting: the value for B5 was 9.5 kcal/mol; that for B6 was 9.1 kcal/mol.
For the molecule B7, the ΔΔG was 6.7 kcal/mol.
Still for that read-out and setting: the same measure for B8: 7.1 kcal/mol; for B9: 7.3 kcal/mol.

For another assay the target is unchanged. The assay can be described thus: ΔΔG of R39D/N67D/N88A/G89D/R91D RNase 1 minus ΔΔG of this variant.
Excerpt: as §1
Regarding B3, the ΔΔΔG stood at 1.1 kcal/mol.
As for B4, the ΔΔΔG turned out to be 1.9 kcal/mol.
In turn, B6 showed a ΔΔΔG of 0.4 kcal/mol.
As for B7, the ΔΔΔG is 2.8 kcal/mol.
B8 gave a ΔΔΔG of 2.4 kcal/mol.
Still for that read-out and setting: the same measure for B9: 2.2 kcal/mol.

Another assay shares this target. The experiment in a line: fluorescence competition assay with fluorescein-labeled G88R RNase A for hRI.
Excerpt: as §1
Data points are the mean (±SE) of at least three separate measurements.
For the molecule B6, binding was put at a Kd of 1000 nM.
Molecule B8 displayed a Kd of 30 nM.
